Tests used:
Format in all cases: in vivo, mouse
C57Bl/6J mice [1] = test: Metabolic function: serum/liver triglyceride, serum cholesterol, serum hydroxybutyrate
Experimental: C57Bl/6J mice were randomised to receive either X203 or IgG control antibody at a dose of 40 mg/kg via IP injection every 3 weeks from age 55 weeks to age 110 weeks, and serum triglyceride, liver triglyceride, serum cholesterol and serum p-hydroxybutyrate levels were measured using Triglyceride Assay Kit (ab65336, Abcam), Cholesterol Assay Kit (ab65390, Abcam), and Beta-Hydroxybutyrate Colorimetric Assay Kit (700190; Cayman chemicals), in accordance with the manufacturer's instructions. Levels of serum triglyceride, liver triglyceride, serum cholesterol and serum p-hydroxybutyrate were also analysed in 12 week-old male and female C57Bl/6J mice, in order to determine baseline levels. Data were analysed by 2-way ANOVA.

C57Bl/6J mice [2] = test: Core body temperature of aged mice; settings: mice aged 110 weeks; 40 mg/kg IP every 3 weeks from age 55 weeks; vs isotype control IgG
Experimental: From age 55 weeks (human equivalent of ˜45 years old (i.e. middle age)) to age 110 weeks (human equivalent of ˜75 years old), mice were administered with 40 mg/kg of either X203 or isotype-matched control IgG via intra-peritoneal injection every 3 weeks.
At age 110 weeks, frailty was assessed using the Mouse Frailty Index described in Rizzo et al. Curr Protoc Mouse Biol. (2018) 8(2):e45, which is hereby incorporated by reference in its entirety. In this protocol, mice are individually observed and evaluated for the absence or presence and severity of 27 different characteristics each scored as 0, 0.5, or 1 based on level of severity. A frailty index score is calculated as the cumulative score of all measures. As a separate measurement of frailty, core body temperature was recorded, as core body temperature is known to decrease with increasing frailty in mice (Reynolds et al., Mechanisms of Ageing and Development (1985) 30(2):143-52). Data were analysed by 2-way ANOVA.

C57BL6/J mice = test: Inflammatory markers in liver, kidney and muscle of old mice (QPCR); settings: 40 mg/kg once every three weeks, vs IgG
Experimental: (§1) FIG. 52. A neutralizing IL-11 antibody reduces multiple markers of inflammation in kidneys of old mice. Wild-type C57BL6/J mice were treated with an intra-peritoneal injection of anti-IL11 (X203; 40 mg/kg, once every three weeks) or an isotype IgG control (11E10, 40 mg/kg, once every three weeks) from 55 weeks of age until 110 weeks of age. 110 week-old mice were sacrificed and organs harvested, snap frozen and RNA extracted using standard procedures. Samples were analyzed by quantitative RT-PCR (QPCR) using primers specific for Ccl2, Ccl5, Tnfα, Il1β, Il11, Il6 or Gapdh.
as §1, with “53.” for “52.”, “livers” for “kidneys”
as §1, with “54.” for “52.”, “skeletal muscle (soleus)” for “kidneys”, “sacrificed,” for “sacrificed”, “Gapdh. […]” for “Gapdh.”
Total RNA was extracted from AML12 or snap-frozen tissues using Trizol (Invitrogen) and RNeasy Mini Kit (Qiagen). […] Expression data were normalized to GAPDH mRNA expression and fold change was calculated using 2^−ΔΔct method.

C57Bl/6J mice [3] = test: Grip strength using a grip strength meter; settings: at 110 weeks; vs IgG control antibody
Experimental: C57Bl/6J mice are randomised to receive either X203 or IgG control antibody at a dose of 40m/kg via IP injection every 3 weeks from age 55 weeks to age 110 weeks.
At 110 weeks, mice are analysed for grip strength using a grip strength meter. Reduced grip strength is a robust marker of ageing-associated frailty in mice (see Fischer et al., Aging (2016) 8: 2370-2391, hereby incorporated by reference in its entirety).
Mice grip a wire mesh attached to the meter with both forelimbs, and are then gently pulled by the tail in a horizontal plane parallel to the base plate of the meter. Grip strength is recorded as the maximum force registered.

[4] = treatment from age 55 to 110 weeks

B1: X203: mouse anti-mouse IL-11 IgG antagonist antibody; VH SEQ ID NO:22, VL SEQ ID NO:23 (antibody, V domains shown)
VH: EVQLQQSGPELVKPGASVKIPCKASGYTFTDYNMDWVKQSHGKSLEWIGDINPHNGGPIYNQKFTGKATLTVDKSSSTAYMELRSLTSEDTAVYYCARGELGHWYFDVWGTGTTVTVSS
VL: DIVLTQSPASLAVSLGQRATISCRASKSVSTSGYSYIHWYQQKPGQPPKLLIYLASNLDSGVPARFSGSGSGTDFTLNIHPVEEEDAATYYCQHSRDLPPTFGGGTKLEIK
B1 was tested, and the “reduction in serum triglyceride levels relative to IgG control” value (C57Bl/6J mice [1]; female mice, baseline 12 week old female 37 mg/dl) was 47%, the “reduction in serum cholesterol levels relative to IgG control” value (C57Bl/6J mice [1]; female mice, baseline 12 week old female 90 mg/dl) was 51% and the “reduction in liver triglyceride levels relative to IgG control” value (C57Bl/6J mice [1]; female mice, baseline 12 week old female 130 mg/g) was 54%. The “reduction in serum triglyceride levels relative to IgG control” value (C57Bl/6J mice [1]; male mice, baseline 12 week old male 54 mg/dl) was 65%, the “reduction in serum cholesterol levels relative to IgG control” value (C57Bl/6J mice [1]; male mice, baseline 12 week old male 149 mg/dl) was 45% and the “reduction in liver triglyceride levels relative to IgG control” value (C57Bl/6J mice [1]; male mice, baseline 12 week old male 165 mg/g) was 71%. The “aging-associated hypertriglyceridemia, steatosis (liver fat accumulation) and hypercholesterolemia” value (C57Bl/6J mice [1]; [4]) was “reduce”, the “levels of circulating β-hydroxybutyrate” value (C57Bl/6J mice [1]; [4]) was “increase” and the body temperature (C57Bl/6J mice [2]) was “significantly higher”. For the same molecule, the “markers of inflammation (CCL2, CCL5, TNFa, IL-1 b, IL-11 and IL-6) in kidney” value (C57BL6/J mice) was “reduces”, the “markers of inflammation (CCL2, CCL5, TNFa, IL-1 b, IL-11 and IL-6) in liver” value (C57BL6/J mice) was “reduces” and the “markers of inflammation (CCL2, CCL5, TNFa, IL-1 b, IL-11 and IL-6) in skeletal muscle” value (C57BL6/J mice) was “reduces”. For the same molecule, the grip strength (C57Bl/6J mice [3]) was “greater”.

From patent US20230399393A1, “METHODS TO EXTEND HEALTH-SPAN AND TREAT AGE-RELATED DISEASES” (National University of Singapore, priority 2020, published 2023)
